In paper PMC9800282 (Nature Medicine, 2022) one finds Kd data, which are given here for one molecule.

The target in experiment [1] is T1, recombinant human αvβ3 integrin (human, UniProt P06756 31-1048; P05106 27-718).
T1 construct: integrin αv subunit, human, recombinant; integrin β3 subunit, human, recombinant; also called rhαvβ3; integrin αvβ3; source: bought: R&D Systems (co-IP)
Put plainly: SPR; Biacore T200; LNA043 (~3,000 RU), FN1 or VTN (~500 RU) amine-coupled to CM5; integrins as analytes 0.6–10 μM, single-cycle kinetics, 37 °C, 1× HBS-N, 0.005% Tween 20, 1 mM MgCl2, 1 mM CaCl2, 2 mM MnCl2; 1:1 binding fit. As to conditions: both partners purified. For orientation: SPR reads the build-up and loss of mass on a sensor chip optically.

Experiment [2] deals with T2, recombinant human α5β1 integrin (human, UniProt P08648 42-1049; P05556 21-728).
T2 construct: integrin α5 subunit, human, recombinant; integrin β1 subunit, human, recombinant; also called rhα5β1; integrin α5β1; source: bought: R&D Systems (co-IP)
The experiment is described as above. To be noted: both partners purified.

T1 sequence (P06756 31-1048, chain 1 of 2): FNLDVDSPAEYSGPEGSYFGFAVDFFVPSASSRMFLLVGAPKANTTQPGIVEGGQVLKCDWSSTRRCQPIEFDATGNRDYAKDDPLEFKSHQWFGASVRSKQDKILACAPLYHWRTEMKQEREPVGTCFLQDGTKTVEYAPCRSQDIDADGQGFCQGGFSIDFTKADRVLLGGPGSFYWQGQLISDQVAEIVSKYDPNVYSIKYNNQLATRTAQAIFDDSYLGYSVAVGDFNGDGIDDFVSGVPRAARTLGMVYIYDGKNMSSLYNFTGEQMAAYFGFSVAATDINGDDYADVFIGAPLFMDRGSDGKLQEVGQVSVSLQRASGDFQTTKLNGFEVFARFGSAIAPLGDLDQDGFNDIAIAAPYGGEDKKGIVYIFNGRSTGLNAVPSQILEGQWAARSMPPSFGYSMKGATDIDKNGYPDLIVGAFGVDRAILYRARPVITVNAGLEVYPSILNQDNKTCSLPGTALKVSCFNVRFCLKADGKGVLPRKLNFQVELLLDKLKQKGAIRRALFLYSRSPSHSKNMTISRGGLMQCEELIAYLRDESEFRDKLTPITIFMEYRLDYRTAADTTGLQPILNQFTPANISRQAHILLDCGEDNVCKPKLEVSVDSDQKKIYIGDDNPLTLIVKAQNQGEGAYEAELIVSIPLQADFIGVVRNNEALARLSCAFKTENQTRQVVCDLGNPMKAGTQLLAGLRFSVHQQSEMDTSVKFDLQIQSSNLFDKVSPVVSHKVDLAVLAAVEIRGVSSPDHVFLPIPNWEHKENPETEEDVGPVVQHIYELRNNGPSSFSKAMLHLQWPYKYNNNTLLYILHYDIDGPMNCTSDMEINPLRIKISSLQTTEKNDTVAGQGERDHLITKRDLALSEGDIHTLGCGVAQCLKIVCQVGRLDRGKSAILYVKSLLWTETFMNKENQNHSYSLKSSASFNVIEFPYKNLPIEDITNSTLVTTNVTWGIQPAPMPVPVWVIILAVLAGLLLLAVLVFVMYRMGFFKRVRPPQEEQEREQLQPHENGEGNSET
T1 sequence (P05106 27-718, chain 2 of 2): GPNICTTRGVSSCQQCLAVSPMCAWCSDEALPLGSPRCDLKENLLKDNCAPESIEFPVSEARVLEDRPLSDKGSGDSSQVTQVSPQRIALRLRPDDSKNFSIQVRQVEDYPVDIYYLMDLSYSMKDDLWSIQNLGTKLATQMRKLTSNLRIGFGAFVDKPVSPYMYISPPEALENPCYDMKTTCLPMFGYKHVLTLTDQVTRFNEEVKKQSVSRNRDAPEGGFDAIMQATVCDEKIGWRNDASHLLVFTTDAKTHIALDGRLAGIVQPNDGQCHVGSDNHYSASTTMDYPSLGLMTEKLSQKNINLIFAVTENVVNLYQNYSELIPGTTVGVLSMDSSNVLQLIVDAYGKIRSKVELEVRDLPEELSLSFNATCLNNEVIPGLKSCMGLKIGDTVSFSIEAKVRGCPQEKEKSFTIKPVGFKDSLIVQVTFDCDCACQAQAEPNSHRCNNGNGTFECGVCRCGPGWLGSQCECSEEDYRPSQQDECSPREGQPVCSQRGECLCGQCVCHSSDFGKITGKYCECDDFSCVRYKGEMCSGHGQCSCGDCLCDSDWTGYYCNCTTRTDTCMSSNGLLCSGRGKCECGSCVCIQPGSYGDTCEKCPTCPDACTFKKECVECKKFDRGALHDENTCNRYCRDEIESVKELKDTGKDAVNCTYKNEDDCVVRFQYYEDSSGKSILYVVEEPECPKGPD

B1: LNA043 (domain or fragment)
chain: IPAECTTIYNRGEHTSGMYAIRPSNSQVFHVYCDVISGSPWTLIQHRIDGSQNFNETWENYKYGFGRLDGEFWLGLEKIYSIVKQSNYVLRIELEDWKDNKHYIEYSFYLGNHETNYTLHLVAITGNVPNAIPENKDLVFSTWDHKAKGHFNCPEGYSGGWWWHDECGENNLNGKYNKPRAQSKPERRRGLSWKSQNGRLYSIKSTKMLIHPTDSESFE
As to B1, the Kd (as a rule, the concentration at which binding is half-saturated) in experiment [1] was approximately 7.9 µM; in experiment [2], approximately 1.5 µM.
